Measurements as given in US20100111852A1 (FORERUNNER PHARMA RESEARCH, published 2010).

T1: human Claudin 3 (human, UniProt O15551 1-220)
T1 construct: forced expression in DG44 or Ba/F3 cells, or endogenous on MCF7 cells; four-transmembrane tight junction protein; also called hCLDN3; hCLN3
T1 sequence: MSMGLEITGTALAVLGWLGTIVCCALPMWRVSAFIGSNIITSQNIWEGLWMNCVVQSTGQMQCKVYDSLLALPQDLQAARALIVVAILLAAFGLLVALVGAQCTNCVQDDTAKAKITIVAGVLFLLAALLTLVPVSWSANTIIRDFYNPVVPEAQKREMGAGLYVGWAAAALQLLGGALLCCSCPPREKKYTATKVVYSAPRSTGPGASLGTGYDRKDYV

T2: human Claudin 1 with C-terminal FLAG tag (human, UniProt O95832 1-211)
T2 construct: whole, on cells; forced expression in Ba/F3 cells; also called hCLDN1; hCLN1
T2 sequence (looked up): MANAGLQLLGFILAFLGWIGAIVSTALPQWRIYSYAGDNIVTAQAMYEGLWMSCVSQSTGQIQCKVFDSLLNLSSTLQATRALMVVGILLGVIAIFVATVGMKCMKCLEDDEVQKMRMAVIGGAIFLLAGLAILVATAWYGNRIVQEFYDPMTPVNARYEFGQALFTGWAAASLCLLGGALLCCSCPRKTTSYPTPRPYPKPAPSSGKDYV

T3: human Claudin 4 with C-terminal FLAG tag (human, UniProt O14493 1-209)
T3 construct: whole, on cells; forced expression in Ba/F3 cells; also called hCLDN4; hCLN4
T3 sequence (looked up): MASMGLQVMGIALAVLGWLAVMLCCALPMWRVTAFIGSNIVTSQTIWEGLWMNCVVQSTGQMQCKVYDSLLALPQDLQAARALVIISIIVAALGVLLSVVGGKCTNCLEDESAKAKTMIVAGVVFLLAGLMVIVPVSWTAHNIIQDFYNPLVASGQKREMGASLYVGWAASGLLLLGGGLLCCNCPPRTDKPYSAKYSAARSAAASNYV

T4: human Claudin 6 with C-terminal FLAG tag (human, UniProt P56747 1-220)
T4 construct: whole, on cells; forced expression in Ba/F3 cells; also called hCLDN6; hCLN6
T4 sequence (looked up): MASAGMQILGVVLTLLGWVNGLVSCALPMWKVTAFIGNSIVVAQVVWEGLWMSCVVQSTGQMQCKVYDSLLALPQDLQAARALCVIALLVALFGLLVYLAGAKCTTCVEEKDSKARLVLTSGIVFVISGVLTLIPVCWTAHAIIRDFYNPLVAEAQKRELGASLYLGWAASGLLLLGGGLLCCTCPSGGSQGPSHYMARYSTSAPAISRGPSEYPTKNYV

T5: mouse Claudin 3 (mouse, UniProt Q9Z0G9 1-219)
T5 construct: whole, on cells; also called mCLDN3; mCLN3
T5 sequence (looked up): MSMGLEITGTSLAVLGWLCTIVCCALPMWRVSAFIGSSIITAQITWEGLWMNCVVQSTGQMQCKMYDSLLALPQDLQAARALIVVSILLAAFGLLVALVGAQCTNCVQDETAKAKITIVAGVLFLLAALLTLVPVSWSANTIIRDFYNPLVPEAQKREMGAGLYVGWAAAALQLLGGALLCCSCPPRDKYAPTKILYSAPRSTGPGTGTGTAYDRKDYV


Assays:
human Claudin 3 [1] = biological target: T1, human Claudin 3; assay: flow cytometry, hCLDN3/DG44 cells, 1 ug/mL antibody
human Claudin 3 [2] = biological target: T1, human Claudin 3; assay: flow cytometry, hCLDN3/DG44 cells, 5 ug/mL antibody
[3] = biological target: T2, human Claudin 1 with C-terminal FLAG tag; assay: flow cytometry, hCLDN1/Ba/F3 cells, 2 ug/mL antibody
Method: (§1) A monoclonal antibody was added to the respective forced expression cells, and then incubated at 4° C. for 30 minutes. After incubation, the cells were washed once with a PBS solution containing 1% fetal bovine serum, then a 150-fold dilution of an FITC-goat anti-mouse IgG (H+L) antibody (Beckman Coulter) was added, and this was incubated at 4° C. for 30 minutes. The amount of antibodies bound per cell was measured using FACSCalibur, and the X geometric mean value, which is the geometric mean of the cell fluorescence intensity, was calculated using the accessory CellQuest Pro analysis software of FACSCalibur.
(§2) The cross reactivity for human Claudin 3, human Claudin 1, human Claudin 4, human Claudin 6, and mouse Claudin 3 forcedly expressed in Ba/F3 was evaluated using at a final antibody concentration of 2 μg/mL.

human Claudin 3 [4] = biological target: T1, human Claudin 3; assay: flow cytometry, hCLDN3/Ba/F3 cells, 2 ug/mL antibody
Method: as §1, §2

[5] = biological target: T3, human Claudin 4 with C-terminal FLAG tag; assay: flow cytometry, hCLDN4/Ba/F3 cells, 2 ug/mL antibody
Method: as §1, §2

[6] = biological target: T4, human Claudin 6 with C-terminal FLAG tag; assay: flow cytometry, hCLDN6/Ba/F3 cells, 2 ug/mL antibody
Method: as §1, §2

human Claudin 3 [7] = biological target: T1, human Claudin 3; assay: flow cytometry, hCLDN3/DG44 cells, 0.1 ug/mL antibody
human Claudin 3 [8] = biological target: T1, human Claudin 3; assay: flow cytometry, MCF7 cells (endogenous Claudin 3), 1 ug/mL antibody
Method: as §1
(§3) The affinity of the antibodies to the MCF7 breast cancer cell line (ATCC, HTB-22), which endogenously expresses Claudin 3, was evaluated by the flow cytometry method.

human Claudin 3 [9] = biological target: T1, human Claudin 3; assay: flow cytometry, MCF7 cells (endogenous Claudin 3), 5 ug/mL antibody
Method: as §1, §3

mouse Claudin 3 = biological target: T5, mouse Claudin 3; assay: flow cytometry, mCLDN3/Ba/F3 cells, 2 ug/mL antibody
Method: as §1, §2

Binder | X geometric mean (human Claudin 3 [1]) | X geometric mean (human Claudin 3 [2]) | X geometric mean [3] | X geometric mean (human Claudin 3 [4]) | X geometric mean [5] | X geometric mean [6] | X geometric mean (human Claudin 3 [7]) | X geometric mean (human Claudin 3 [8]) | X geometric mean (human Claudin 3 [9]) | X geometric mean (mouse Claudin 3)
CDN28 (antibody, mouse IgG1, kappa, V domains shown, mouse monoclonal, IgG1/IgK) VH: EVQLQQSGPELVKPGASVKISCKASGYSFTGYFMNWVKQSHGKSLEWLGRINPYNGDTFYNQKFKGKATLTVDKSSNTAHMELRSLTSEDSAVYYCARGDGYYVTSLAYWGQGTLVTVSA VL: NIVMTQSPKSMSMSVGERVTLSCKASENVVSYVSWFQQKPEQSPKLLIYGASNRYTGVPDRFTGSGSATDFTLTISSVQAEDLADYYCGQSYSYPLTFGAGTKLELKR | 1450 | 1990 | 12 | 1430 | 27 | 9 | 275 | 175 | 186 | –
CDN35 (antibody, V domains shown, mouse monoclonal, IgG2a/IgK) VH: EVQLQQSGPELVKPGASVKMSCKASGYTFTDYYMNWVKQSHGKSLEWIGRVNPSNGGTSYNQKFKGKATLTVDKSLSTAYMQLNSLTSEDSAVYYCARGLAYYSNSFTYWGQGTLVTVSA VL: KIVLTQSPASLAVSLRQRATISCRASESVDSYGNSFMHWYQQKPGQPPKLLIYRASNLESGVPARFSGSGSRTDFTLTIDPVEADDAATYYCQQNNEDPWTFGGGTKLEIKR | 869 | 2300 | – | 2150 | 59 | 36 | 120 | 176 | 380 | 1310
CDN16 (antibody, mouse IgG2b, kappa, V domains shown, mouse monoclonal, IgG2b/IgK) VH: EVQLQQSGPELVKPGASVKMSCKASGYTFTDYYMNWVKQSHGKSLEWIGRVNPSNGGTSYNQKFKGKATLTVDKSLSTAYMQLNSLTSEDSAVYYCARGLAYYSNSFVYWGQGTLVTVSA VL: KIVLTQSPASLAVSLRQRATISCRASESVDSYGNSFMHWYQQKPGQPPKLLIYRASNLESGVPARFSGSGSRTDFTLTIDPVEADDAATYYCQQNNEDPWTFGGGTKLEIKR | 928 | 2480 | – | 1980 | 11 | 9 | 125 | 125 | 361 | 1270
CDN04 (antibody, mouse IgG1, kappa, V domains shown, mouse monoclonal, IgG1/IgK; also called CDN4) VH: EVQLQQSGPELVKPGASMKISCKASGYSFTGYTMNWMKQGHGKNLEWIGLINPYNGGTSYNQKFKDKATLTLDKSSSSAYMELLSLTSEDSAVYYCARGSYGSSYFDYWGQGTTLTVSS VL: DIVMSQSPSSLAVSVGEKVTMSCKSSQSLLYGSNQKNYLAWYQQKPGQSPKLLIYWASTRESGVPDRFTGSGSGTDFTLTISSVKAEDLAVYYCQQYYNFPYTFGGGTKLEIKR | 180 | 667 | 11 | 366 | 14 | 9 | 28 | 47 | 130 | 16
CDN27 (antibody, V domains shown, mouse monoclonal, IgG2a/IgK) VH: EVQLQQSGPELVKPGASVKISCKASGYSFTGYFMNWVKQSHGKSLEWIGRINPYNGDTFYNQKFKGKATLTVDKSSSTAHMELRSLTSEDSAVYYCARSGDWYFDVWGAGTTVTVSS VL: DIVLTQSPASLAVSLGQRATISCRASKSVSTSSYSYMHWYQQKPGQPPKLLIKFASYLESGVPARFSGSGSGTDFTLNIHPVEEEDAATYYCQHSREFPRTFGGGTKLEIKR | 1790 | 2700 | 42 | 3340 | 302 | 25 | 308 | 202 | 310 | 50
CDN38 (antibody, V domains shown) VH: EVQLQQSGPELVKPGASVKMSCKASGYSFTGYFMNWVKQSHGKSLEWIGRINPYNGDTFYNQKFKGKATLTVDKSSSTAHMELRSLTSEDSALYYCARSGNYVMDYWGQGTSVTVSS VL: DIVLTQSPASLAVSLGQSVTISCRASESVEYYGTSLMQWYQQKPGQPPKLLIYGASNVESGVPARFSGSGSGTDFSLNIHPVEEDDIAMYFCQQSRKVPWTFGGGTKLEIKR | 215 | 258 | 7 | 142 | 74 | 9 | 207 | 63 | 61 | 115
